Data from the nanobody polyreactivity screen of Harvey et al. (2022).

Assay: yeast display, Sf9 membrane polyspecificity reagent, FACS + sequencing; frameworks hold sequencing errors
How it was run: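 Nanobodies from a synthetic yeast display library (Saccharomyces cerevisiae BJ5465), induced 36–48 hours with galactose, were stained 1 hour at 4 °C with 10% biotinylated, detergent-solubilized Sf9 membrane reagent, enriched on streptavidin microbeads, then FACS-sorted. Anti-HA (expression) and streptavidin (reagent binding) fluorescence set low and high (top ~1%) gates. Polyreactivity labels come from the gate of origin. Genes were colony-PCR amplified, MiSeq 2 × 250 sequenced and filtered by CDR length.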

Sequence | polyreactivity (PSR sort gate)
QVQLVESGGGLVQAGGSLRLSCAASGSIFWYAMGWYRQAPGKERELVATITSGASTTYADSVKGRFTISRDNPKNTVYLQMNSLKPEDTAVYYCAKGFTYPQTRFGYWGQGTQVTVSS | low polyreactivity
QVQLVESGGGLVQAGGSLRLSCAASGSIFWYNAMGWYRQAAGKERELVAAIRWRGGSTYYADSVKGRFTISRDNEKNTVYLQMNSLKPEDTAVYYFAAQVYVSQLYTSYYYWGQGTQVTVSS | high polyreactivity
QVQLVESGGGLVQAGGSLRLSCAASGSIFWYNAMGWYRQAPGKERELVASISYSGAITYYADSVKGRFTISRDNAKNTVYLQMNSLKPEDTAVYYCNAEHYLPGYDWSEYDSWGQGTQVTVSS | low polyreactivity
QVQLVESGGGLVQAGGSLRLSCAASGSIFWYYAMGWSRQAPGKERELVAAITGSGGSTYYADSVKGRFTISRDNAKTTVYLQLNSLKPEDTAVYYCAAEAFFWYYGWYDYWGQGTQVTVSS | high polyreactivity
QVQLVESGGGLVQAGGSLRLSCAASGSIFYANAMGWYRQAPWKEREFVAAISSSGGGTSYADSVKGRFTISRDNAKNTVYLQMNSLKPEDTAVYYFAARVTYGGIPARQIYDYWGQGTQVTVSS | low polyreactivity
QVQLVESGGGLVQAGGSLRLSCAASGSIFYAYARGWYRQAPGKERELVATISSVGSTYYADSVKGRFTISRDNAKHTVYLHMNSLKPEDTAVHYCAKQRIVVYKTGYDYWGQGTQVTVSS | low polyreactivity
QVQLVESGGGLVQAGGSLRLSCAASGSIFYDNAMGWYRQAPGKERELVAAIRGRGGSTYYADSVKGRFTISRDNAKNTVYLQMNSLKPEDTAVYYCNALNYRYRKYDYWGQGTQVTVSS | high polyreactivity
QVQLVESGGGLVQAGGSLRLSCAASGSIFYDNAMGWYRQAPGKERELVAAISFRGSSTYYADSVKGRFTISRDNAKNTVYLQMNSLKPEDTAVYYCNTDIYVQYGWGQGTQVTVSS | low polyreactivity
QVQLVESGGGLVQAGGSLRLSCAASGSIFYDNGMGWYRQAPGKERELVAAISRGGTTNYSDSVKGRFTISRDKAKNTVYLQMNSLKPEDTAVYYCNAETRFTYWGSWYDYWGQGTQVTVSS | low polyreactivity
QVQLVESGGGLVQAGGSLRLSCAASGSIFYDYAMGWYRQAPGKERELVAAISGRGGSTYYADSVKGRFTISRDNAKNTVYLQMNSLKPEDTAVYYCAARYRYRFLDRYNYWGQGTQVTVSS | high polyreactivity
QVQLVESGGGLVQAGGSLRLSCAASGSIFYDYAMGWYRQAPGKERELVATISSGGSTNYADSVKGRFTISRDNAKNTVYLQMNSLKPEDTAVYYCNVDGRRYPHEFDYWGQGTQVTVSS | low polyreactivity
QVQLVESGGGLVQAGGSLRLSCAASGSIFYENAMGWYRQAPGKEREFVATIDLIGDRTYYADSVKGRFTISRDNAKNTVYLQMNCLKPEDTAVYYCAAERVGVFFRYDYWGQGTQVTVSS | low polyreactivity
QVQLVESGGGLVQAGGSLRLSCAASGSIFYENAMGWYRQAPGKERELVAAISRSGGSTYYADSVKGRFTISRDNAKNTVSLQMNSLKPEDTAVYYCAADVYVFIGDYWGQGTQVTVSS | low polyreactivity
QVQLVESGGGLVQAGGSLRLSCAASGSIFYFNAMGWYRQAPGKERELVADISGSGGSTYYADSVKGRFTISRDNAKNTVYLQMNSLKPEDTAVYYCAARLYLHSWWYYAYDYWGQGTQVTVSS | high polyreactivity
QVQLVESGGGLVQAGGSLRLSCAASGSIFYFNAMGWYRQATGKERELVADISWSGGDSTYYADSVKGRFTISRDNAKNTVYLQMNSLKPEDTAVYYCAADLSYPDWSRYQWDMDYWGQGTQVTVSS | low polyreactivity
QVQLVESGGGLVQAGGSLRLSCAASGSIFYFNPMGWYRPAPGKERELVAAISWSGRTYYADSVKGRFTISRDNAKKTVYLQMNSLKPEDTAVYYCNAAYHYYGKYDYWGQGTQVTVSS | high polyreactivity

Sequence | polyreactivity (PSR sort gate)
QVQLVESGGGLVQAGGSLRLSCAASGSIFYGNAMGWYRPAPGKERELVAGITSGVGTNYADSVKGRFTISRDNAKNTVYLQMNSLKPEDTAVYYCNARYVYWIKGHDYWGQGTQVTVSS | high polyreactivity
QVQLVESGGGLVQAGGSLRLSCAASGSIFYGNAMGWYRPAPGKERELVARISWSGSNTRYADSVKGRFTISRDNAKNTVYLQMNSLKPEDTAVYYCNARGFPGKFGYWGQGTQVTVSS | high polyreactivity
QVQLVESGGGLVQAGGSLRLSCAASGSIFYGNAMGWYRQAPGKERELVASITYSGGTTNYADSVKGRFTISRDNAKNTVYLQMNCLKPEDTAVYYCNADIYPDRYGSTNYDFNYWGQGTQVTVSS | low polyreactivity
QVQLVESGGGLVQAGGSLRLSCAASGSIFYGNTMGWYRQAPGKDRELVASITRPGDRTYYADSVKGRFTISRDNAKNTVYLQMNSLKPEDTAVYSCNAGLVLPPPGASIVYFDQMDYWGQGTQLTVSS | low polyreactivity
QVQLVESGGGLVQAGGSLRLSCAASGSIFYGNTMGWYRQAPGKERELVAAITWSGDSTYYADSVKGRFTISRDIAKNTVYLQMISLKPEDTALYYCNADQTGVYYAGEGNHWGQGTQVSVSS | low polyreactivity
QVQLVESGGGLVQAGGSLRLSCAASGSIFYGYAMGWYRQAPGKERELVAAIRWSDGSTYYADSVKGRFTISRDNAKNTVYLQMNSLKPEDTAVYYCNADLWVPSYLWGDYWGQGTQVTVSS | low polyreactivity
QVQLVESGGGLVQAGGSLRLSCAASGSIFYGYAMGWYRQAPGKERELVASISKRGGSTYYADSVKGRFTISRDNAKNTVYLQMNSLKPEDTAVYYCAAEGVVYREYNYWGQGTQVTVSS | high polyreactivity
QVQLVESGGGLVQAGGSLRLSCAASGSIFYHNAMGWYRQAPGKERELVAAISRSGGITSYADSVKGRFTISRDNAKNTVYLQMNSLKPEDTAVYYCAARSYYDGFYYWGQGTQVTVSS | high polyreactivity
QVQLVESGGGLVQAGGSLRLSCAASGSIFYHNPMGWYRQAPGKERELVAAITSRGGRTTYADSVKGRFTISRDNAKNTVYLQMNSLKPEDTAVYYCNAVYTGYSYISRVDYWGQGTQVTVSS | low polyreactivity
QVQLVESGGGLVQAGGSLRLSCAASGSIFYHYAMGWYRQAPGKVRELFAAISGSGGSTYYADSVKGRFTISRDNAKNTVYLQMNSLKPEDSAVYYCAADTSRYHYTRYFFDSDYWGQGTQVTVSS | low polyreactivity
QVQLVESGGGLVQAGGSLRLSCAASGSIFYINAMGWYRQAPGKEREFVATITWSGDSTYYADSVKGRFTISRDNAKNTVYLQMNSLKPEDTAVYYCTARKQYQSYVDWEYDYWGQGTQVTVSS | low polyreactivity
QVQLVESGGGLVQAGGSLRLSCAASGSIFYINAMGWYRQAPGKERELVAAITSGGTYYADSVKGRFTISRDTAKNTVYLQMNSLKPEDTAVYYCAADREGTPLFDYWGQGTQVTVSS | low polyreactivity
QVQLVESGGGLVQAGGSLRLSCAASGSIFYINAMGWYRQAPGKERELVAAITWRGAGTYYADSVKGRFTISRDNAKNTVYLQMNSLKPEDTAVYYCAADDSPWRVPRNYWGQGTQVTVSS | low polyreactivity
QVQLVESGGGLVQAGGSLRLSCAASGSIFYIYAMGWYRQAHGKERELVAAISSGGATYADSVKGRFTISRDNAKNTVYLQMNSLKPEDTAVYYFAVDRAFRAQNYHEYDYWGQGTQVTVSS | low polyreactivity
QVQLVESGGGLVQAGGSLRLSCAASGSIFYIYAMGWYRQAPGKETELVASISRSGGSTYYADSVKGRFTISRDNAKNTVYLQMNSLKPEDTAVYYCAAVITFYRYPPGETYYYWGQGTQVTVSS | high polyreactivity
